Results published in PMC3439350.

Target: yAsf1*^532 (full-length yeast Asf1, residues 1 to 279, labeled at position -1 with Alexa Fluor 532) (S. cerevisiae) (UniProt P32447)
Experiment: other fluorescence titration; fluorescence quenching: unlabeled histones titrated into 1 nM yAsf1*^532; 20°C; 150 mM KCl, 2 mM MgCl2, 10 mM Tris-HCl pH 7.5, 1% glycerol, 0.05% Brij-35, 0.5 mM TCEP; ligand-depleted binding model

- Kd: 0.4 nM
Substance: H3/H4^∆94 (Xenopus laevis, H3 C110A and H4 T71C Δ94-102) (from UniProt P84233 1-136; P62799 1-94) (complex)
